Drawing on paper PMC11484861 (Nature Communications, 2024), this text covers Kd for one substance.

The target in the test is GFP-PDPK1 (human (cloned from HEK293T cells)) (UniProt O15530). Description: MST.
Chain of GFP-PDPK1 (human (cloned from HEK293T cells)) (O15530 whole entry): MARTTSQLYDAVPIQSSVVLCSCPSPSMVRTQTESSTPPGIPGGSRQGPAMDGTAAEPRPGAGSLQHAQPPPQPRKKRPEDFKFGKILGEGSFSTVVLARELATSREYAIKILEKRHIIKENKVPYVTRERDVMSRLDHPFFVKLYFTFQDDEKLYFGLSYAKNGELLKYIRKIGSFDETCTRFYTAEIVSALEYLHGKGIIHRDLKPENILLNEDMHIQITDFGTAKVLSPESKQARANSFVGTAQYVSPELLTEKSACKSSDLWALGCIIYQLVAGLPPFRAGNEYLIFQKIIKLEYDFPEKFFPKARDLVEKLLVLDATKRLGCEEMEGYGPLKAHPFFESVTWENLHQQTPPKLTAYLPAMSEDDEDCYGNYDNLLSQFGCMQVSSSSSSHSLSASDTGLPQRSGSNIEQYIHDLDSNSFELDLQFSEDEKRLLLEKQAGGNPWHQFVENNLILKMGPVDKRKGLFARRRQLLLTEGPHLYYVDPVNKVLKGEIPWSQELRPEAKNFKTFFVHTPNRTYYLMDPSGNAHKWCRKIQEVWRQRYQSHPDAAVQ

By Kd is commonly meant the constant that tells how readily two partners part at equilibrium. A higher Kd goes with a looser complex. As for “unlabeled MΔβ3-5 (MST ligand) (from UniProt P0DTC5 1-222) (domain or fragment)”, the Kd came out at 37.8 µM.
